The chains are these.
B1: scFv; the commonest letter at each place (parent)
chain 1: EVKLDETGGGLVQPGRPMKLSCVASGFTFSDYWMNWVRQSPEKGLEWVAQIRNKPYNYETYYSDSVKGRFTISRDDSKSSVYLQMNNLRVEDMGIYYCTGSYYGMDYWGQGTSVTVS
chain 2: DVVMTQTPLSLPVSLGDQASISCRSSQSLVHSNGNTYLRWYLQKPGQSPKVLIYKVSNRFSGVPDRFSGSGSGTDFTLKISRVEAEDLGVYFCSQSTHVPWTFGGGTKLEIK

The variants in the data set “fluorescein” derive from B1. The data set is described as follows: Kd (Tite-Seq). The conditions noted are these: with fluorescein; format: scFv 4-4-20, heavy + light.
Data set [1] covers variants of B1. The data set is described as follows: yeast surface expression (ratio to wild type); higher = more expressed. The conditions noted are these: format: scFv 4-4-20, heavy + light.

As for chain 1 G104K G109F, in the data set with fluorescein, the Kd was at least 10 µM. The yeast surface expression in data set [1] came out at 0.282.
In the same order, the values of chain 1 G104K G109C are at least 10 µM and 0.195.
For chain 1 G100W G104I, in the data set with fluorescein, the Kd is at least 10 µM. In addition, the yeast surface expression in data set [1] worked out at 0.359.
Take chain 1 G104Y W108L: the Kd with fluorescein was at least 10 µM. Moreover, in data set [1], the yeast surface expression was determined as 0.212.
As for chain 1 G100S D106E, in the data set with fluorescein, the Kd amounted to 0.0534 µM. Besides, the yeast surface expression in data set [1] is 1.15.
With chain 1 G109H, in the data set with fluorescein, the Kd was at least 10 µM. Moreover, the yeast surface expression in data set [1] amounted to 0.268.
In the same order, the values of chain 1 G109A are 0.0525 µM and 0.719.
In the same order, the values of chain 1 G109F are at least 10 µM and 0.305.
The corresponding values for chain 1 G109C are at least 10 µM and 0.39.
In the case of chain 1 G109E, in the data set with fluorescein, the Kd was at least 10 µM. Also, the yeast surface expression in data set [1] was 0.504.
chain 1 G109D: in the data set with fluorescein, the Kd was 3.64 µM. Moreover, in data set [1], the yeast surface expression amounted to 0.573.
Take chain 1 G104R M105R: the Kd with fluorescein is at least 10 µM. For the same variant, the yeast surface expression in data set [1] stood at 0.672.
The corresponding values for chain 1 G104R M105C are at least 10 µM and 0.315.
On to chain 1 G100T Y102N, for which the Kd with fluorescein was at least 10 µM. The yeast surface expression in data set [1] was determined as 0.932.
With chain 1 G100W S101L, the Kd in the data set with fluorescein was at least 10 µM. The yeast surface expression in data set [1] came to 0.293.
On to chain 1 G100W S101P, for which the Kd in the data set with fluorescein was at least 10 µM. In data set [1], the yeast surface expression was found to be 0.197.
In the same order, the values of chain 1 G100W S101E are at least 10 µM and 0.429.
chain 1 G104F Y107Q: the Kd with fluorescein is at least 10 µM. Further, in data set [1], the yeast surface expression was found to be 0.401.
On to chain 1 G104D Y107D, for which the Kd with fluorescein was at least 10 µM. Also, in data set [1], the yeast surface expression stood at 0.716.
As to chain 1 G104D Y107F, in the data set with fluorescein, the Kd was at least 10 µM. Moreover, the yeast surface expression in data set [1] worked out at 0.945.
On to chain 1 G104D Y107L, for which, in the data set with fluorescein, the Kd was at least 10 µM. Further, the yeast surface expression in data set [1] stood at 1.18.
For chain 1 G104C M105I, in the data set with fluorescein, the Kd is at least 10 µM. In data set [1], the yeast surface expression is 0.349.
The corresponding values for chain 1 G104C M105P are at least 10 µM and 0.256.
In the same order, the values of chain 1 G100W W108V are 0.15 µM and 0.251.
With chain 1 G104V D106P, the Kd with fluorescein is at least 10 µM. Further, in data set [1], the yeast surface expression came out at 0.232.
With chain 1 G100S Y102T, in the data set with fluorescein, the Kd was determined as 0.0233 µM. Moreover, in data set [1], the yeast surface expression is 0.74.
As to chain 1 G100S Y102K, the Kd in the data set with fluorescein came out at 0.0335 µM. Further, the yeast surface expression in data set [1] was determined as 0.868.
In the same order, the values of chain 1 G100S Y102C are at least 10 µM and 0.675.
In the case of chain 1 G104S Y107K, in the data set with fluorescein, the Kd was at least 10 µM. For the same variant, in data set [1], the yeast surface expression came out at 0.796.
In the case of chain 1 G104S Y107S, the Kd with fluorescein was at least 10 µM. In data set [1], the yeast surface expression was 0.437.
In the case of chain 1 G104S Y107T, the Kd in the data set with fluorescein was at least 10 µM. Besides, the yeast surface expression in data set [1] is 0.831.
In the case of chain 1 G104S Y107G, the Kd with fluorescein was at least 10 µM. Moreover, the yeast surface expression in data set [1] came to 0.303.
In the same order, the values of chain 1 G104D G109V are at least 10 µM and 0.266.
The corresponding values for chain 1 G104D G109L are at least 10 µM and 0.236.
Consider chain 1 G104Y Y107H, for which the dissociation constant Kd with fluorescein was at least 10 µM. Moreover, the yeast surface expression in data set [1] was found to be 0.59.
Regarding chain 1 G100W Y107D G109L, the Kd with fluorescein was at least 10 µM. Also, the yeast surface expression in data set [1] was determined as 0.227.
With chain 1 G104Q G109T, the Kd with fluorescein is at least 10 µM. In addition, in data set [1], the yeast surface expression worked out at 0.272.
The corresponding values for chain 1 G104Q G109M are at least 10 µM and 0.0981.
As to chain 1 G104Q G109Q, in the data set with fluorescein, the Kd was at least 10 µM. Moreover, the yeast surface expression in data set [1] was found to be 0.248.
Take chain 1 G100S S101D: the Kd with fluorescein is at least 10 µM. Moreover, the yeast surface expression in data set [1] came out at 0.892.
Turning to chain 1 G100W Y102N D106L, the Kd with fluorescein is at least 10 µM. For the same variant, in data set [1], the yeast surface expression was 0.286.
In the case of chain 1 G104L D106G, in the data set with fluorescein, the Kd was at least 10 µM. Besides, in data set [1], the yeast surface expression is 0.169.
In the same order, the values of chain 1 G104W M105R are at least 10 µM and 0.484.
The corresponding values for chain 1 G104N Y107A are at least 10 µM and 0.74.
In the same order, the values of chain 1 G104N Y107K are at least 10 µM and 0.64.
Regarding chain 1 G100W D106F, the Kd with fluorescein is at least 10 µM. Besides, in data set [1], the yeast surface expression worked out at 0.18.
Turning to chain 1 G100W D106C, in the data set with fluorescein, the Kd is at least 10 µM. Besides, in data set [1], the yeast surface expression was 0.437.
Turning to chain 1 G104F G109W, the Kd with fluorescein was at least 10 µM. In addition, the yeast surface expression in data set [1] came out at 0.0981.
Turning to chain 1 G104V W108A, in the data set with fluorescein, the equilibrium dissociation constant (Kd) is at least 10 µM. The yeast surface expression in data set [1] was 0.141.
The corresponding values for chain 1 G104Q Y107V are at least 10 µM and 0.941.
chain 1 G100T S101N G104K: the Kd in the data set with fluorescein is at least 10 µM. Also, the yeast surface expression in data set [1] amounted to 0.565.
The corresponding values for chain 1 G100Y D106I are at least 10 µM and 0.398.
In the case of chain 1 G100Y D106S, in the data set with fluorescein, the Kd was at least 10 µM. Further, the yeast surface expression in data set [1] came out at 0.505.
For the variant chain 1 G100Y Y103C, the Kd with fluorescein is at least 10 µM. In addition, the yeast surface expression in data set [1] came to 0.567.
On to chain 1 G104Y G109R, for which the Kd in the data set with fluorescein is 0.021 µM. Further, the yeast surface expression in data set [1] is 1.08.
In the same order, the values of chain 1 G104Y G109T are at least 10 µM and 0.0981.
On to chain 1 G104I W108H, for which, in the data set with fluorescein, the Kd is at least 10 µM. Moreover, in data set [1], the yeast surface expression came to 0.102.
The corresponding values for chain 1 G104I W108D are at least 10 µM and 0.236.

Values taken from the FLAb antibody collection (doi:10.7554/elife.23156).
